Source: patent US20190248902A1 (published 2019)

T1: human ASGR-1 (wild type) (human, UniProt P07306 1-291)
T1 construct: also called wt ASGR1; huASGR-1
T1 sequence: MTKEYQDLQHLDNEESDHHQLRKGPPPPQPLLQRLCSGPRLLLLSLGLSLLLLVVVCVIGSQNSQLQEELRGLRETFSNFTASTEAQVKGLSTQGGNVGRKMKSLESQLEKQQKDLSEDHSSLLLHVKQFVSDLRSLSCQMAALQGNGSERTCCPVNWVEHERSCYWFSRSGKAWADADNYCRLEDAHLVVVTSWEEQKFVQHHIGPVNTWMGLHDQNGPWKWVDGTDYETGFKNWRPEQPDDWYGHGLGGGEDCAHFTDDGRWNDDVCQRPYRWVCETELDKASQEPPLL

T2: human ASGR-1 mutant construct H203 (human, UniProt P07306 1-291)
T2 construct: Arg/Glu scanning: non-arginine residues were changed to arginine; Transiently expressed on CHO-S cells
T2 sequence: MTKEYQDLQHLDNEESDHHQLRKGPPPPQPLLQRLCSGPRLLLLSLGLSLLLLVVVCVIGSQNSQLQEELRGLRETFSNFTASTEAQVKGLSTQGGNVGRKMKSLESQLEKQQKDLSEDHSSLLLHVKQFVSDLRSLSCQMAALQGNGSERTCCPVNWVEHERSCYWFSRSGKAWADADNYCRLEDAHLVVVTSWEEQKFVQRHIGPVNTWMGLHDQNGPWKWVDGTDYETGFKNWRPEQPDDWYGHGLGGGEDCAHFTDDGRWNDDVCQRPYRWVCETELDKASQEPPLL


Experiments:
[1] = target: T1, human ASGR-1 (wild type); assay: FACS ratio: 65C12 geomean / this mAb geomean
Procedure, shortened: (§1)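 Value is the geomean of reference antibody 65C12 divided by that of the test mAb, correcting for construct expression. Binding was measured by flow cytometry on transiently transfected CHO-S cells after 1 h at 4 °C with antibody at 5 ug/ml. Detection used an anti-Fc Alexa 647 secondary, with 7-AAD to exclude dead cells.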

[2] = target: T2, human ASGR-1 mutant construct H203; assay: FACS ratio: 65C12 geomean / this mAb geomean
Procedure, shortened: as §1

[3] = target: T1, human ASGR-1 (wild type); assay: flow cytometry, CHO-S:huASGR-1 cells, 11-point titration
Procedure, shortened: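 CHO-S cells stably expressing human ASGR-1 were multiplexed with dye-labelled parental cells and mouse ASGR-1 cells (30K cells/well). Antibodies were run as an 11-point 1:2 series from 100 nM for 30 min at 4°C, with CaCl2 (1 mM) washes, anti-human IgG-APC detection and PI live gating. EC50 from four-parameter fits of duplicate median signals.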

Expression Normalization to mAb 65C12 [1] | Expression Normalization to mAb 65C12 [2] | EC50 [3] | Binder
1.58 | 1.87 | 0.13 nM | 193E7 (antibody, V domains shown, mAb) VH: QVQLQQWGAGLLKPSETLSLTCAVYGGSFSGYFWTWIRQPPGKGLEWIGEINHSGSTNYNPSLKSRVTISVDTSKNQFSLKLSSVTAADTAVYYCARDYGADYWGQGTLVAVSA VL: DIQMTQSPSSLSASVGDRVTITCRASQGIRNDLGWYQQKPGKAPKRLIYSASSLQRGVPSRFSGSGSGTEFTLTISSLQPEDFATYYCLQHKRYPLTFGGGTKVEIK
1.99 | 1.95 | 0.56 nM | 194C10 (antibody, V domains shown, mAb) VH: QVQLQQWGAGLLKPSETLSLTCAVSGGSFRYYYWSWIRQPPGKGLEWFGEINHSGSTNYNPSLKSRVTISIDTSKNQFSLKLRSVTAADTAVYYCARDYGAFDIWGQGTMVTVSS VL: EIVLTQSPGTLSLSPGERATLSCRASPSVNSGYLAWYQQKPGQTPRLLIFGASSRATGIPDRFSASGSGADFTLTISRLEPEDFAVYFCQQYESSPWTFGQGTKVEIK
